From patent US20230183291A1 (Bicycle, published 2023)
Numbered stars: 1 amine (or outer) side, 2 acyl side, 3 side chain; on linkers, the order of the positions; unused ones are H or OH. Bridge positions count the residues as written; N and C are the ends. Square brackets hold non-standard residues; d marks the D form. Ends that are not written are not given here. Hse(Me) = O-methyl-homoserine, COCC[C@H](N[*:1])C(=O)[*:2]; TATA = O=C(CC[*:1])N1CN(C(=O)CC[*:2])CN(C(=O)CC[*:3])C1; Phe(3-Cl) = N[C@@H](Cc1cccc(Cl)c1)C(=O)O; Phe(2-Cl) = N[C@@H](Cc1ccccc1Cl)C(=O)O; Phe(3-F) = N[C@@H](Cc1cccc(F)c1)C(=O)O; Phe(3-Me) = Cc1cccc(C[C@H](N)C(=O)O)c1; Phe(4-Me) = Cc1ccc(C[C@H](N)C(=O)O)cc1; Phe(2-F) = N[C@@H](Cc1ccccc1F)C(=O)O; Phe(2-Me) = Cc1ccccc1C[C@H](N)C(=O)O; Hyp = O=C(O)[C@@H]1C[C@@H](O)CN1; hArg = N=C(N)NCCCC[C@H](N)C(=O)O; tBuAla = CC(C)(C)C[C@H](N)C(=O)O; Agb = N=C(N)NCC[C@H](N)C(=O)O; PYA = propargyl-acid

B1: BCY17688 (peptide)
peptide: CNAVLCSWARANSFC
modifications: linker 1-6-15 via TATA
notes: bicyclic peptide without terminal additions

target: T1, Biotinylated Human ACE2, His, Avitag protein (ACROBiosystems, AC2-H82E6) (human, UniProt Q9BYF1 18-740); assay: SPR multiple cycle kinetics, ACE2 captured on CAP chip, peptide analyte 6.25-100 nM; geometric mean
T1 construct: also called biotinylated ACE2; ACE2 protein; not shown: His tag and Avitag
T1 sequence (Q9BYF1 18-740 limits assumed): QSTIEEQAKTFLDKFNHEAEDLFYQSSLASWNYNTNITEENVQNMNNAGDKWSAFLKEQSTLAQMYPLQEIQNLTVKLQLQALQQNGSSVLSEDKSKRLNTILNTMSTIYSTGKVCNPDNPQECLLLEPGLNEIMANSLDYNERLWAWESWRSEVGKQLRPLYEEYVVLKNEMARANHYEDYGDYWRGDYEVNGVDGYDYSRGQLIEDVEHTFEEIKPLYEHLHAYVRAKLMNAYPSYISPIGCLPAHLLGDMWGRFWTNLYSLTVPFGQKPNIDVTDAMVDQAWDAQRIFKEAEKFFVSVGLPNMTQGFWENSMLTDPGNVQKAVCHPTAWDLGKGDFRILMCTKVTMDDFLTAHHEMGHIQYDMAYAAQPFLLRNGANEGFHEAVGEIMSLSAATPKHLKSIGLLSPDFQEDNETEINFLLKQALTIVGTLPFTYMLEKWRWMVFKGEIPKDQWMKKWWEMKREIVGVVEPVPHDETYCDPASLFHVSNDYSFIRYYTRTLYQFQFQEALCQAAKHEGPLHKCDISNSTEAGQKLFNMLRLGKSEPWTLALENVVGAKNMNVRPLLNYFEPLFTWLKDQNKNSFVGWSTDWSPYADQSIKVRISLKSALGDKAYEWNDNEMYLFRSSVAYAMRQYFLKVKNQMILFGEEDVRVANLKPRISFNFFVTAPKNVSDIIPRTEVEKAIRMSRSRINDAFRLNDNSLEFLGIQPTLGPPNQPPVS
Method: Binding of bicyclic peptides of the invention to Biotinylated Human ACE2, His, Avitag™ protein (ACROBiosystems, AC2-H82E6) was assessed by a MCK analysis. Experiments were performed at 25° C. on a Biacore T200 (Cytiva) running Biacore T200 Control software V2.0.1 and Evaluation software V3.0 (Cytiva). HBS-EP+(Cytiva) was used as running buffer as well as for ligand and analyte dilutions. Biotin CAPture reagent was loaded onto a Series S Sensor CAP Chip (Cytiva) followed by loading of biotinylated ACE2 at a flow rate of 2 μl/min. The surface was then allowed to stabilise.
MCK data was obtained using bicyclic peptides of the invention as analytes injected at a flow rate of 30 μl/min to minimise any potential mass transfer effects. A five point, two-fold dilution range from 6.25 nM to 100 nM of analyte was prepared in running buffer. For each concentration, the association phases were monitored for 250 seconds and the dissociation phase was measured for 450 seconds. Regeneration of the sensor chip surface was conducted between cycles using the CAP Chip standard regeneration buffer (Cytiva). Multiple repeats of a blank and of Bicycle were programmed into the kinetic run in order to check the stability of both the surface and analyte over the kinetic cycles.
(§1) The signal from the reference channel Fc1 (no ACE2 captured) was subtracted from that of Fc2, Fc3 and Fc4 to correct for bulk effect and differences in non-specific binding to a reference surface. The signal from each blank run (Fc2-ACE2 captured but no antigen) was subtracted to correct for differences in surface stability. The double referenced sensorgrams were fitted with the Langmuir (1:1) binding model (Equation 1a above) where the closeness of fit of the data to the model is evaluated using the Chi square value which describes the deviation between the experimental and fitted (observed and expected) curves (Equation 1 b above).

Row | Binder | Kd [nM]
1 | ACNTVLCAWARANSYCA (linker 2-7-16 via TATA, bicyclic peptide, TATA scaffold) [BCY17161] | 4.4
2 | Ac-CN[Hyp]VLCSWA[hArg]ANSFC (linker 1-6-15 via TATA, bicyclic peptide, TATA scaffold) [BCY18210] | 10.6
3 | Ac-CNTVLCGWARANSLCK(PYA) (linker 1-6-15 via TATA, bicyclic peptide, TATA scaffold) [BCY18550] | 15.6
4 | ACNQVLCRWAQVNSMCA (linker 2-7-16 via TATA, bicyclic peptide, TATA scaffold) [BCY17158] | 8.1
5 | ACNTVLCGWARANSLCA (linker 2-7-16 via TATA, bicyclic peptide, TATA scaffold) [BCY17162] | 11.4
6 | ACNAVLCSWARANSFCA (linker 2-7-16 via TATA, bicyclic peptide, TATA scaffold) [BCY15429] | 4
7 | ACNTVLCNWARYNSLCA (linker 2-7-16 via TATA, bicyclic peptide, TATA scaffold) [BCY17160] | 4.8
8 | Ac-CNTVLCGWA[hArg]ANSLCAK(PYA) (linker 1-6-15 via TATA, bicyclic peptide, TATA scaffold) [BCY18549] | 42.9
9 | Ac-CNAVLCSWA[hArg]ANSFC (linker 1-6-15 via TATA, bicyclic peptide, TATA scaffold) [BCY18259] | 13
10 | Ac-CNAVLCSWA[hArg]TNSFC (linker 1-6-15 via TATA, bicyclic peptide, TATA scaffold) [BCY19025] | 70.7
11 | Ac-CNAVLCSWA[hArg]SNSFC (linker 1-6-15 via TATA, bicyclic peptide, TATA scaffold) [BCY19026] | 45.2
12 | Ac-CNSVLCSWA[hArg]ANSFC (linker 1-6-15 via TATA, bicyclic peptide, TATA scaffold) [BCY18658] | 13.5

target: T1, Biotinylated Human ACE2, His, Avitag …; assay: SPR single cycle kinetics, ACE2 captured on CAP chip, peptide analyte; geometric mean; * Rmax set to 10
Method: (§2) Binding of bicyclic peptides of the invention to Biotinylated Human ACE2, His, Avitag™ protein (ACROBiosystems, AC2-H82E6) was assessed by a SCK analysis. Experiments were performed at 25° C. on a Biacore T200 (Cytiva) running Biacore T200 Control software V2.0.1 and Evaluation software V3.0 (Cytiva). HBS-EP+ (Cytiva) was used as running buffer as well as for ligand and analyte dilutions. Biotin CAPture reagent was loaded onto a Series S Sensor CAP Chip (Cytiva) followed by loading of the ACE2 protein at a flow rate of 2 μl/min. The surface was then allowed to stabilise.
(§3) SCK data was obtained using bicyclic peptides of the invention as analytes injected at a flow rate of 30 μl/min to minimise any potential mass transfer effects. […] The association phases were monitored for 100 seconds for each of the four injections of increasing concentrations of analyte and a single dissociation phase was measured for 400 seconds following the last injection of analyte. Regeneration of the sensor chip surface was conducted using the CAP Chip standard regeneration buffer (Cytiva).
as §1, with “below)” for “above)”, “1b below).” for “1 b above).”

Row | Binder | Kd [nM]
13 | Ac-CN[Hyp]VLCSWA[hArg]ANSFC (linker 1-6-15 via TATA, bicyclic peptide, TATA scaffold) [BCY18210] | 21.1
14 | Ac-CNTVLCGWARANSLCK(PYA) (linker 1-6-15 via TATA, bicyclic peptide, TATA scaffold) [BCY18550] | 9.7
15 | Ac-CNRVLCAWATANS[Hse(Me)]CK(PYA) (linker 1-6-15 via TATA, bicyclic peptide, TATA scaffold) [BCY18349] | 59.6
16 | Ac-CNTVLCGWA[hArg]ANSLCAK(PYA) (linker 1-6-15 via TATA, bicyclic peptide, TATA scaffold) [BCY18549] | 63.9
17 | Ac-CNAVLCSWA[hArg]ANSFC (linker 1-6-15 via TATA, bicyclic peptide, TATA scaffold) [BCY18259] | 23

target: T1, Biotinylated Human ACE2, His, Avitag …; assay: SPR single cycle kinetics, ACE2 captured on CAP chip, peptide analyte; geometric mean
Method: as §2, §3
as §1, with “below)” for “above)”, “1b below).” for “1 b above).”

Row | Binder | Kd [nM]
18 | ACAEIYKCWRGRCA (linker 2-8-13 via TATA, bicyclic peptide, TATA scaffold) [BCY17152] | 120
19 | ACNAVLCSWARANS[Phe(2-Me)]CA (linker 2-7-16 via TATA, bicyclic peptide, TATA scaffold) [BCY17335] | 2.5
20 | ACNAVLCSWA[Agb]ANSFCA (linker 2-7-16 via TATA, bicyclic peptide, TATA scaffold) [BCY17689] | 4.7
21 | ACNAVLCSWARANS[Phe(3-Cl)]CA (linker 2-7-16 via TATA, bicyclic peptide, TATA scaffold) [BCY17339] | 4.7
22 | ACNTVLCAWARANSYCA (linker 2-7-16 via TATA, bicyclic peptide, TATA scaffold) [BCY17161] | 4.2
23 | Ac-ACNAVLCSWARANSFCA (linker 2-7-16 via TATA, bicyclic peptide, TATA scaffold) [BCY17691] | 3.9
24 | ACNTVLCAWATQNSLCA (linker 2-7-16 via TATA, bicyclic peptide, TATA scaffold) [BCY17164] | 14.8
25 | ACNAVLCSWARANS[Phe(2-Cl)]CA (linker 2-7-16 via TATA, bicyclic peptide, TATA scaffold) [BCY17338] | 3.2
26 | ACNQVLCRWAQVNSMCA (linker 2-7-16 via TATA, bicyclic peptide, TATA scaffold) [BCY17158] | 4
27 | B1 | 2.7
28 | ACDTLYKCWRGRCA (linker 2-8-13 via TATA, bicyclic peptide, TATA scaffold) [BCY17153] | 91.7
29 | ACNTVLCGWARANSLCA (linker 2-7-16 via TATA, bicyclic peptide, TATA scaffold) [BCY17162] | 5.7
30 | ACNAVLCSWARANS[Phe(3-Me)]CA (linker 2-7-16 via TATA, bicyclic peptide, TATA scaffold) [BCY17336] | 8.3
31 | ACTELYKCWRGRCA (linker 2-8-13 via TATA, bicyclic peptide, TATA scaffold) [BCY17156] | 151
32 | Ac-CNAVLCSWARANSFC (linker 1-6-15 via TATA, bicyclic peptide, TATA scaffold) [BCY17663] | 5.3
33 | ACSPVLCAWATRNSLCA (linker 2-7-16 via TATA, bicyclic peptide, TATA scaffold) [BCY17165] | 12.5
34 | ACNAVLCSWARANS[Phe(3-F)]CA (linker 2-7-16 via TATA, bicyclic peptide, TATA scaffold) [BCY17342] | 3.3

Row | Binder | Kd [nM]
35 | ACNAVLCSWARANSFCA (linker 2-7-16 via TATA, bicyclic peptide, TATA scaffold) [BCY15429] | 3.4
36 | ACNAVLCSWARANSYCA (linker 2-7-16 via TATA, bicyclic peptide, TATA scaffold) [BCY17690] | 4.8
37 | ACNTVLCNWARYNSLCA (linker 2-7-16 via TATA, bicyclic peptide, TATA scaffold) [BCY17160] | 4.2
38 | ACNKVLCSWASRNSMCA (linker 2-7-16 via TATA, bicyclic peptide, TATA scaffold) [BCY17157] | 11.8
39 | ACESLYKCWRGRCA (linker 2-8-13 via TATA, bicyclic peptide, TATA scaffold) [BCY17154] | 104
40 | ACNTVLCAWAMNNSMCA (linker 2-7-16 via TATA, bicyclic peptide, TATA scaffold) [BCY17163] | 36.8
41 | ACNAVLCSWARANS[Phe(4-Me)]CA (linker 2-7-16 via TATA, bicyclic peptide, TATA scaffold) [BCY17337] | 5
42 | Ac-CNTVLCSWA[hArg]ANSFC (linker 1-6-15 via TATA, bicyclic peptide, TATA scaffold) [BCY18657] | 69.3
43 | Ac-CNSVLCSWA[hArg]ANSFC (linker 1-6-15 via TATA, bicyclic peptide, TATA scaffold) [BCY18658] | 6.7
44 | ACPSQYKCWRGKCA (linker 2-8-13 via TATA, bicyclic peptide, TATA scaffold) [BCY15427] | 150
45 | ACNAVLCSWARANS[Phe(2-F)]CA (linker 2-7-16 via TATA, bicyclic peptide, TATA scaffold) [BCY17341] | 3.1
46 | ACNTLYKCWRGKCA (linker 2-8-13 via TATA, bicyclic peptide, TATA scaffold) [BCY17155] | 107
47 | ACNAV[tBuAla]CSWARANSFCA (linker 2-7-16 via TATA, bicyclic peptide, TATA scaffold) [BCY17333] | 5
48 | Ac-CN[hArg]VLCSWA[hArg]ANSFC (linker 1-6-15 via TATA, bicyclic peptide, TATA scaffold) [BCY18350] | 8.3
49 | ACNRVLCAWATANSMCA (linker 2-7-16 via TATA, bicyclic peptide, TATA scaffold) [BCY17159] | 4.7
50 | Ac-CNAVLCSWA[hArg]ANSFCK(PYA) (linker 1-6-15 via TATA, bicyclic peptide, TATA scaffold) [BCY18784] | 25.3
